Measured values from patent US20220168396A1, “MULTI-RECEPTOR AGONIST AND MEDICAL USE THEREOF” (published 2022).
Square brackets hold non-standard residues; d marks the D form. Ends that are not written are not given here. Aib = CC(C)(N)C(=O)O

T1: human glucose-dependent insulinotropic peptide receptor (human, UniProt P48546)
T1 sequence: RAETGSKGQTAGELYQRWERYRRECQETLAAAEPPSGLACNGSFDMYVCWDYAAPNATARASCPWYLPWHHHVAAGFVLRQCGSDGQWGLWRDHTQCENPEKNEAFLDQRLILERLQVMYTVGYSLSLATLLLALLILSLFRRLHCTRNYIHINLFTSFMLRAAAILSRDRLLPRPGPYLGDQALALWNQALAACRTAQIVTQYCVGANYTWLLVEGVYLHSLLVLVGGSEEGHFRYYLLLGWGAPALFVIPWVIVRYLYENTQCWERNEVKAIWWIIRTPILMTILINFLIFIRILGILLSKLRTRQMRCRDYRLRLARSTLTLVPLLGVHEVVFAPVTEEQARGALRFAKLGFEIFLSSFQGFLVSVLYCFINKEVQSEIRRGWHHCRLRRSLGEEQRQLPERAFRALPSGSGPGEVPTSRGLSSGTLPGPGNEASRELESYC

B1: Compound No. 15 (peptide)
peptide: Y[Aib]EGTFTSDYSIYLEKIAQKEFVNWLLAGGPSSGAPPPSK-NH2
modifications: N-terminus assumed
SMILES: CC[C@H](C)[C@H](NC(=O)[C@H](CCCCN)NC(=O)[C@H](CCC(=O)O)NC(=O)[C@H](CC(C)C)NC(=O)[C@H](Cc1ccc(O)cc1)NC(=O)[C@@H](NC(=O)[C@H](CO)NC(=O)[C@H](Cc1ccc(O)cc1)NC(=O)[C@H](CC(=O)O)NC(=O)[C@H](CO)NC(=O)[C@@H](NC(=O)[C@H](Cc1ccccc1)NC(=O)[C@@H](NC(=O)CNC(=O)[C@H](CCC(=O)O)NC(=O)C(C)(C)NC(=O)[C@@H](N)Cc1ccc(O)cc1)[C@@H](C)O)[C@@H](C)O)[C@@H](C)CC)C(=O)N[C@@H](C)C(=O)N[C@@H](CCC(N)=O)C(=O)N[C@@H](CCCCN)C(=O)N[C@@H](CCC(=O)O)C(=O)N[C@@H](Cc1ccccc1)C(=O)N[C@H](C(=O)N[C@@H](CC(N)=O)C(=O)N[C@@H](Cc1c[nH]c2ccccc12)C(=O)N[C@@H](CC(C)C)C(=O)N[C@@H](CC(C)C)C(=O)N[C@@H](C)C(=O)NCC(=O)NCC(=O)N1CCC[C@H]1C(=O)N[C@@H](CO)C(=O)N[C@@H](CO)C(=O)NCC(=O)N[C@@H](C)C(=O)N1CCC[C@H]1C(=O)N1CCC[C@H]1C(=O)N1CCC[C@H]1C(=O)N[C@@H](CO)C(=O)N[C@@H](CCCCN)C(N)=O)C(C)C
B2: Compound No. 11 (peptide)
peptide: Y[Aib]EGTFTSDYSIYLEKEAQKEFVNWLLAGGPSSGAPPPSK-NH2
modifications: N-terminus assumed
SMILES: CC[C@H](C)[C@H](NC(=O)[C@H](CO)NC(=O)[C@H](Cc1ccc(O)cc1)NC(=O)[C@H](CC(=O)O)NC(=O)[C@H](CO)NC(=O)[C@@H](NC(=O)[C@H](Cc1ccccc1)NC(=O)[C@@H](NC(=O)CNC(=O)[C@H](CCC(=O)O)NC(=O)C(C)(C)NC(=O)[C@@H](N)Cc1ccc(O)cc1)[C@@H](C)O)[C@@H](C)O)C(=O)N[C@@H](Cc1ccc(O)cc1)C(=O)N[C@@H](CC(C)C)C(=O)N[C@@H](CCC(=O)O)C(=O)N[C@@H](CCCCN)C(=O)N[C@@H](CCC(=O)O)C(=O)N[C@@H](C)C(=O)N[C@@H](CCC(N)=O)C(=O)N[C@@H](CCCCN)C(=O)N[C@@H](CCC(=O)O)C(=O)N[C@@H](Cc1ccccc1)C(=O)N[C@H](C(=O)N[C@@H](CC(N)=O)C(=O)N[C@@H](Cc1c[nH]c2ccccc12)C(=O)N[C@@H](CC(C)C)C(=O)N[C@@H](CC(C)C)C(=O)N[C@@H](C)C(=O)NCC(=O)NCC(=O)N1CCC[C@H]1C(=O)N[C@@H](CO)C(=O)N[C@@H](CO)C(=O)NCC(=O)N[C@@H](C)C(=O)N1CCC[C@H]1C(=O)N1CCC[C@H]1C(=O)N1CCC[C@H]1C(=O)N[C@@H](CO)C(=O)N[C@@H](CCCCN)C(N)=O)C(C)C
B3: Compound No. 14 (peptide)
peptide: Y[Aib]EGTFTSDYSIYLEKIAAQEFVNWLLAGGPSSGAPPPSK-NH2
modifications: N-terminus assumed
SMILES: CC[C@H](C)[C@H](NC(=O)[C@H](CCCCN)NC(=O)[C@H](CCC(=O)O)NC(=O)[C@H](CC(C)C)NC(=O)[C@H](Cc1ccc(O)cc1)NC(=O)[C@@H](NC(=O)[C@H](CO)NC(=O)[C@H](Cc1ccc(O)cc1)NC(=O)[C@H](CC(=O)O)NC(=O)[C@H](CO)NC(=O)[C@@H](NC(=O)[C@H](Cc1ccccc1)NC(=O)[C@@H](NC(=O)CNC(=O)[C@H](CCC(=O)O)NC(=O)C(C)(C)NC(=O)[C@@H](N)Cc1ccc(O)cc1)[C@@H](C)O)[C@@H](C)O)[C@@H](C)CC)C(=O)N[C@@H](C)C(=O)N[C@@H](C)C(=O)N[C@@H](CCC(N)=O)C(=O)N[C@@H](CCC(=O)O)C(=O)N[C@@H](Cc1ccccc1)C(=O)N[C@H](C(=O)N[C@@H](CC(N)=O)C(=O)N[C@@H](Cc1c[nH]c2ccccc12)C(=O)N[C@@H](CC(C)C)C(=O)N[C@@H](CC(C)C)C(=O)N[C@@H](C)C(=O)NCC(=O)NCC(=O)N1CCC[C@H]1C(=O)N[C@@H](CO)C(=O)N[C@@H](CO)C(=O)NCC(=O)N[C@@H](C)C(=O)N1CCC[C@H]1C(=O)N1CCC[C@H]1C(=O)N1CCC[C@H]1C(=O)N[C@@H](CO)C(=O)N[C@@H](CCCCN)C(N)=O)C(C)C
B4: Compound No. 12 (peptide)
peptide: Y[Aib]EGTFTSDYSIYLE[Aib]EAAKEFVNWLLAGGPSSGAPPPSK-NH2
modifications: N-terminus assumed
SMILES: CC[C@H](C)[C@H](NC(=O)[C@H](CO)NC(=O)[C@H](Cc1ccc(O)cc1)NC(=O)[C@H](CC(=O)O)NC(=O)[C@H](CO)NC(=O)[C@@H](NC(=O)[C@H](Cc1ccccc1)NC(=O)[C@@H](NC(=O)CNC(=O)[C@H](CCC(=O)O)NC(=O)C(C)(C)NC(=O)[C@@H](N)Cc1ccc(O)cc1)[C@@H](C)O)[C@@H](C)O)C(=O)N[C@@H](Cc1ccc(O)cc1)C(=O)N[C@@H](CC(C)C)C(=O)N[C@@H](CCC(=O)O)C(=O)NC(C)(C)C(=O)N[C@@H](CCC(=O)O)C(=O)N[C@@H](C)C(=O)N[C@@H](C)C(=O)N[C@@H](CCCCN)C(=O)N[C@@H](CCC(=O)O)C(=O)N[C@@H](Cc1ccccc1)C(=O)N[C@H](C(=O)N[C@@H](CC(N)=O)C(=O)N[C@@H](Cc1c[nH]c2ccccc12)C(=O)N[C@@H](CC(C)C)C(=O)N[C@@H](CC(C)C)C(=O)N[C@@H](C)C(=O)NCC(=O)NCC(=O)N1CCC[C@H]1C(=O)N[C@@H](CO)C(=O)N[C@@H](CO)C(=O)NCC(=O)N[C@@H](C)C(=O)N1CCC[C@H]1C(=O)N1CCC[C@H]1C(=O)N1CCC[C@H]1C(=O)N[C@@H](CO)C(=O)N[C@@H](CCCCN)C(N)=O)C(C)C
B5: Compound No. 16 (peptide)
peptide: Y[Aib]EGTFTSDYSIYLEKE[Aib]AKEFVNWLLAGGPSSGAPPPSK-NH2
modifications: N-terminus assumed
SMILES: CC[C@H](C)[C@H](NC(=O)[C@H](CO)NC(=O)[C@H](Cc1ccc(O)cc1)NC(=O)[C@H](CC(=O)O)NC(=O)[C@H](CO)NC(=O)[C@@H](NC(=O)[C@H](Cc1ccccc1)NC(=O)[C@@H](NC(=O)CNC(=O)[C@H](CCC(=O)O)NC(=O)C(C)(C)NC(=O)[C@@H](N)Cc1ccc(O)cc1)[C@@H](C)O)[C@@H](C)O)C(=O)N[C@@H](Cc1ccc(O)cc1)C(=O)N[C@@H](CC(C)C)C(=O)N[C@@H](CCC(=O)O)C(=O)N[C@@H](CCCCN)C(=O)N[C@@H](CCC(=O)O)C(=O)NC(C)(C)C(=O)N[C@@H](C)C(=O)N[C@@H](CCCCN)C(=O)N[C@@H](CCC(=O)O)C(=O)N[C@@H](Cc1ccccc1)C(=O)N[C@H](C(=O)N[C@@H](CC(N)=O)C(=O)N[C@@H](Cc1c[nH]c2ccccc12)C(=O)N[C@@H](CC(C)C)C(=O)N[C@@H](CC(C)C)C(=O)N[C@@H](C)C(=O)NCC(=O)NCC(=O)N1CCC[C@H]1C(=O)N[C@@H](CO)C(=O)N[C@@H](CO)C(=O)NCC(=O)N[C@@H](C)C(=O)N1CCC[C@H]1C(=O)N1CCC[C@H]1C(=O)N1CCC[C@H]1C(=O)N[C@@H](CO)C(=O)N[C@@H](CCCCN)C(N)=O)C(C)C
B6: Compound No. 13 (peptide)
peptide: Y[Aib]EGTFTSDYSIYLEKIAAKEFVNWLLAGGPSSGAPPPSK-NH2
modifications: N-terminus assumed
SMILES: CC[C@H](C)[C@H](NC(=O)[C@H](CCCCN)NC(=O)[C@H](CCC(=O)O)NC(=O)[C@H](CC(C)C)NC(=O)[C@H](Cc1ccc(O)cc1)NC(=O)[C@@H](NC(=O)[C@H](CO)NC(=O)[C@H](Cc1ccc(O)cc1)NC(=O)[C@H](CC(=O)O)NC(=O)[C@H](CO)NC(=O)[C@@H](NC(=O)[C@H](Cc1ccccc1)NC(=O)[C@@H](NC(=O)CNC(=O)[C@H](CCC(=O)O)NC(=O)C(C)(C)NC(=O)[C@@H](N)Cc1ccc(O)cc1)[C@@H](C)O)[C@@H](C)O)[C@@H](C)CC)C(=O)N[C@@H](C)C(=O)N[C@@H](C)C(=O)N[C@@H](CCCCN)C(=O)N[C@@H](CCC(=O)O)C(=O)N[C@@H](Cc1ccccc1)C(=O)N[C@H](C(=O)N[C@@H](CC(N)=O)C(=O)N[C@@H](Cc1c[nH]c2ccccc12)C(=O)N[C@@H](CC(C)C)C(=O)N[C@@H](CC(C)C)C(=O)N[C@@H](C)C(=O)NCC(=O)NCC(=O)N1CCC[C@H]1C(=O)N[C@@H](CO)C(=O)N[C@@H](CO)C(=O)NCC(=O)N[C@@H](C)C(=O)N1CCC[C@H]1C(=O)N1CCC[C@H]1C(=O)N1CCC[C@H]1C(=O)N[C@@H](CO)C(=O)N[C@@H](CCCCN)C(N)=O)C(C)C

Legend:
[1] = target: human glucagon-like peptide-1 receptor (human, UniProt P43220); assay: cell-based or functional assay
[2] = target: T1, human glucose-dependent insulinotropic …; assay: cell-based or functional assay

| Binder | Activity for human GLP-1R (EC50 nM), cAMP HTRF [1] | Activity for human GIPR (EC50 nM), cAMP HTRF [2] |
| --- | --- | --- |
| B1 | 0.015 nM | 0.009 nM |
| B2 | 0.08 nM | 0.014 nM |
| B3 | 0.008 nM | 0.006 nM |
| B4 | 0.013 nM | 0.081 nM |
| B5 | 0.007 nM | 0.018 nM |
| B6 | 0.013 nM | 0.017 nM |
